What all share (conditions): both partners purified
Experiment [1] concerns the target T1, cyclin T1 (CycT1), purified alone, wild type (human, UniProt O60563 1-264).
T1 construct: source: purified
Briefly: fluorescence polarisation.

Experiment [2] has as its target T2, P-TEFb (CDK9 1–330 / cyclin T1 1–264) (human, UniProt P50750 1-330; O60563 1-264).
T2 construct: also called positive transcription elongation factor b; source: High5 insect cells (baculovirus), purified (His-Trap, TEV digest, His-Trap); not shown: His-tag, N-terminal, cleaved
Kind of experiment: fluorescence polarisation. In general terms: In fluorescence polarisation assays a small probe gives low polarisation when free and higher when bound to something large.

Experiment [3] addresses T3, Tat-P-TEFb complex (HIV-1 Tat 1–86, CDK9 1–330, cyclin T1 1–264) (human | HIV-1, UniProt P50750;O60563;P04608).
T3 construct: also called P-TEFb-Tat; not shown: His-tag, N-terminal, cleaved; copies: + +
Kind of experiment: fluorescence polarisation.

Experiment [4] has as its target T1, cyclin T1 (CycT1), purified alone, wild …. Kind of experiment: fluorescence polarisation; competition titration of unlabeled AFF4 segments against 5 nM fluorescent peptide with 75 nM CycT1, 45 nM P-TEFb or 6 nM Tat-P-TEFb; 25 mM HEPES pH 7.5, 100 mM NaCl, 10% glycerol, 0.1% NP40, 0.5 mM TCEP.
The target of experiment [5] is T2, P-TEFb (CDK9 1–330 / cyclin T1 1–264). Described as above.
Experiment [6] concerns the target T3, Tat-P-TEFb complex (HIV-1 Tat 1–86, …). The description is as above.

GABA = NCCCC(=O)O

In general, Kd refers to the free concentration of one partner at which half of the binding sites on the other are occupied at equilibrium, for simple one-to-one binding.

T1 sequence (O60563 1-264): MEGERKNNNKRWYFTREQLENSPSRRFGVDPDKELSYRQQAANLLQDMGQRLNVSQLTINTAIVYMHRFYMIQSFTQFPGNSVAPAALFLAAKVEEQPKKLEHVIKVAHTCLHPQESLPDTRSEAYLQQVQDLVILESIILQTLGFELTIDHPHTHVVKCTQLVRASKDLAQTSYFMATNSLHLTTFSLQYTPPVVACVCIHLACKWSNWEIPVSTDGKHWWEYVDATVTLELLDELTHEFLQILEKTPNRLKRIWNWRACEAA
T2 sequence (P50750 1-330, chain 1 of 2): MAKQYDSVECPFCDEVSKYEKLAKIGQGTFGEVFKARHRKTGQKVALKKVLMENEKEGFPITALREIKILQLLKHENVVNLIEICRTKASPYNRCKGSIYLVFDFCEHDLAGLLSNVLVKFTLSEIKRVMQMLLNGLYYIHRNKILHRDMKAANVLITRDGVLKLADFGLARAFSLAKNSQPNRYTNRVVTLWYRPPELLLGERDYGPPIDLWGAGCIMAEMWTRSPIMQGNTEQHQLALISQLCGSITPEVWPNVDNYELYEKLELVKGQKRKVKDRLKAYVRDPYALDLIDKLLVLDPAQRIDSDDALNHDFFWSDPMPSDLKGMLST
T2 sequence (O60563 1-264, chain 2 of 2): as the sequence (O60563 1-264) above

B1: fluorescein-labeled AFF4(32–67) peptide (peptide)
peptide: {FAM-GABA}-SPLFAEPYKVTSKEDKLSSRIQSMLGNYDEMKDFIG-NH2
notes: source: synthetic peptide (University of Utah DNA/Peptide Facility)
As for B1, the Kd in experiment [1] was 104 ± 17 nM; in experiment [2], 36 ± 6 nM; in experiment [3] it was 8.8 ± 0.8 nM.

B2: AFF4(2–73) (domain or fragment, human, UniProt Q9UHB7 2-73, looked up)
chain: NREDRNVLRMKERERRNQEIQQGEDAFPPSSPLFAEPYKVTSKEDKLSSRIQSMLGNYDEMKDFIGDRSIPK
notes: source: E. coli Rosetta(DE3)pLysS, purified (His-Trap, TEV digest, His-Trap); not shown: His-tag, N-terminal, cleaved
Regarding B2, the Kd in experiment [4] was determined as 130 ± 18 nM; in experiment [5], 10 ± 1 nM; in experiment [6], 0.85 ± 0.15 nM.
The matching figures for SPLFAEPYKVTSKEDKLSSRIQSMLGNYDEMKDFIG [unlabeled AFF4(32–67) peptide]: 102 ± 10 nM, 36 ± 4 nM and 4.5 ± 0.6 nM.

B3: AFF4(2–363) (domain or fragment, human, UniProt Q9UHB7 2-363, looked up)
chain: NREDRNVLRMKERERRNQEIQQGEDAFPPSSPLFAEPYKVTSKEDKLSSRIQSMLGNYDEMKDFIGDRSIPKLVAIPKPTVPPSADEKSNPNFFEQRHGGSHQSSKWTPVGPAPSTSQSQKRSSGLQSGHSSQRTSAGSSSGTNSSGQRHDRESYNNSGSSSRKKGQHGSEHSKSRSSSPGKPQAVSSLNSSHSRSHGNDHHSKEHQRSKSPRDPDANWDSPSRVPFSSGQHSTQSFPPSLMSKSNSMLQKPTAYVRPMDGQESMEPKLSSEHYSSQSHGNSMTELKPSSKAHLTKLKIPSQPLDASASGDVSCVDEILKEMTHSWPPPLTAIHTPCKTEPSKFPFPTKESQQSNFGTGEQK
Regarding B3, the Kd in experiment [5] was 7 ± 1 nM; in experiment [6], 0.6 ± 0.1 nM.

Source of the values: article PMC3589825, “The AFF4 scaffold binds human P-TEFb adjacent to HIV Tat” (eLife, 2013).
